According to the Immune Epitope Database (IEDB):

What was measured:
HLA-B*44:02 = experiment: IEDB peptide-MHC binding, purified MHC/competitive/radioactivity; filed as Kd, often an IC50 or EC50 that approximates it; ≥ and ≤ were set here for values at or beyond the usual limits of such assays
HLA-B*18:01 [1] = experiment: as above
HLA-B*45:01 = experiment: as above
HLA-B*40:02 = experiment: as above
HLA-B*44:03 = experiment: as above
HLA-B*40:01 = experiment: as above
HLA-B*15:03 = experiment: as above; settings: source organism: Vaccinia virus WR
HLA-B*27:03 = experiment: IEDB peptide-MHC binding, purified MHC/competitive/fluorescence; filed as Kd, often an IC50 or EC50 that approximates it; ≥ and ≤ were set here for values at or beyond the usual limits of such assays; settings: source organism: Reston ebolavirus
HLA-A*69:01 = experiment: as above; settings: source organism: Reston ebolavirus
HLA-B*18:01 [2] = experiment: as above; settings: source organism: Reston ebolavirus
HLA-B*57:01 = experiment: as above; settings: source organism: Reston ebolavirus
HLA-A*26:01 = experiment: as above; settings: source organism: Reston ebolavirus
HLA-B*51:01 = experiment: as above; settings: source organism: Reston ebolavirus
HLA-B*15:01 [3] = experiment: as above; settings: source organism: Reston ebolavirus
HLA-A*02:01 = experiment: as above; settings: source organism: Reston ebolavirus
HLA-B*46:01 = experiment: as above; settings: source organism: Reston ebolavirus
HLA-B*39:01 = experiment: as above; settings: source organism: Reston ebolavirus
HLA-A*03:01 = experiment: IEDB peptide-MHC binding, purified MHC/direct/fluorescence; filed as Kd, often an IC50 or EC50 that approximates it; ≥ and ≤ were set here for values at or beyond the usual limits of such assays; settings: source organism: Reston ebolavirus - Reston
HLA-A*32:01 = experiment: IEDB peptide-MHC binding, purified MHC/competitive/radioactivity; filed as Kd, often an IC50 or EC50 that approximates it; ≥ and ≤ were set here for values at or beyond the usual limits of such assays; settings: source organism: Vaccinia virus WR
HLA-B*08:01 = experiment: as above; settings: source organism: Vaccinia virus WR
HLA-B*15:01 [4] = experiment: as above; settings: source organism: Vaccinia virus WR
HLA-A*30:01 = experiment: as above; settings: source organism: Vaccinia virus WR
HLA-A*02:06 = experiment: as above; settings: source organism: Vaccinia virus WR
HLA-A*02:02 = experiment: as above; settings: source organism: Vaccinia virus WR
HLA-A*02:03 = experiment: as above; settings: source organism: Vaccinia virus WR
HLA-B*48:01 = experiment: IEDB peptide-MHC binding, purified MHC/direct/fluorescence; filed as Kd, often an IC50 or EC50 that approximates it; ≥ and ≤ were set here for values at or beyond the usual limits of such assays; settings: source organism: Giardia lamblia ATCC 50803
[5] = source organism: Lymphocytic choriomeningitis virus (strain Armstrong)
[6] = source organism: Mammarenavirus machupoense
[7] = source organism: Mammarenavirus guanaritoense
[8] = source organism: SARS coronavirus Tor2

REPVDQKQF
Kd (HLA-B*44:02; [5]): 1630 nM
Kd (HLA-B*18:01 [1]; [5]): ≥ 47.6 µM
Kd (HLA-B*45:01; [5]): ≥ 77.7 µM
Kd (HLA-B*40:02; [5]): 11900 nM
Kd (HLA-B*44:03; [5]): 7920 nM
Kd (HLA-B*40:01; [5]): ≥ 40.5 µM

SLNECIISF
Kd (HLA-B*15:03): 66.9 nM

ALYEENALK
Kd (HLA-B*27:03): ≥ 20 µM
Kd (HLA-A*69:01): ≥ 20 µM
Kd (HLA-B*18:01 [2]): ≥ 20 µM
Kd (HLA-B*57:01): ≥ 20 µM
Kd (HLA-A*26:01): ≥ 20 µM
Kd (HLA-B*51:01): ≥ 20 µM
Kd (HLA-B*15:01 [3]): ≥ 20 µM
Kd (HLA-A*02:01): ≥ 20 µM
Kd (HLA-B*46:01): ≥ 20 µM
Kd (HLA-B*39:01): ≥ 20 µM
Kd (HLA-A*03:01): 1840 nM

EDIAMGYVV
Kd (HLA-B*44:02; [6]): 10300 nM
Kd (HLA-B*18:01 [1]; [6]): 1.5 µM
Kd (HLA-B*45:01; [6]): 2.26 µM
Kd (HLA-B*40:02; [6]): 69.8 nM
Kd (HLA-B*44:03; [6]): ≥ 38400 nM
Kd (HLA-B*40:01; [6]): ≥ 45.3 µM

PEFDWILGW
Kd (HLA-B*44:02; [7]): 212 nM
Kd (HLA-B*18:01 [1]; [7]): 5.12 µM
Kd (HLA-B*45:01; [7]): ≥ 77.7 µM
Kd (HLA-B*40:02; [7]): ≥ 22000 nM
Kd (HLA-B*44:03; [7]): 27.4 nM
Kd (HLA-B*40:01; [7]): ≥ 76.1 µM

SEMVMCGGSL
Kd (HLA-B*44:02; [8]): 2.24 nM
Kd (HLA-B*18:01 [1]; [8]): 0.355 µM
Kd (HLA-B*45:01; [8]): 0.0163 µM
Kd (HLA-B*40:02; [8]): 1020 nM
Kd (HLA-B*44:03; [8]): 12.3 nM
Kd (HLA-B*40:01; [8]): 0.000475 µM

TMKERRPIL
Kd (HLA-A*32:01): 2210 nM
Kd (HLA-B*08:01): 1.83 nM
Kd (HLA-B*15:01 [4]): 808 nM
Kd (HLA-A*30:01): 4.73 µM
Kd (HLA-B*15:03): 397 nM

LLKDRNELF
Kd (HLA-A*32:01): 3070 nM
Kd (HLA-B*08:01): 40.6 nM
Kd (HLA-B*15:01 [4]): 1.82 nM
Kd (HLA-A*30:01): 0.108 µM
Kd (HLA-B*15:03): 15.7 nM

KELSPRWYFY
Kd (HLA-B*44:02; [8]): 9.79 nM
Kd (HLA-B*18:01 [1]; [8]): 6.75 µM
Kd (HLA-B*45:01; [8]): 4.23 µM
Kd (HLA-B*40:02; [8]): 309 nM
Kd (HLA-B*44:03; [8]): 12.6 nM
Kd (HLA-B*40:01; [8]): 8.57 µM

QIVAYFSEF
Kd (HLA-A*32:01): 70.4 nM
Kd (HLA-B*08:01): 1930 nM
Kd (HLA-B*15:01 [4]): 1.38 nM
Kd (HLA-A*30:01): 12.7 µM
Kd (HLA-B*15:03): 7.85 nM

YQSLSPPPF
Kd (HLA-A*32:01): 4740 nM
Kd (HLA-B*08:01): ≥ 33400 nM
Kd (HLA-B*15:01 [4]): 5050 nM
Kd (HLA-A*30:01): 0.000503 µM
Kd (HLA-B*15:03): 0.0611 nM

VLFEVFVVF
Kd (HLA-A*32:01): 7.8 nM
Kd (HLA-B*08:01): 5110 nM
Kd (HLA-B*15:01 [4]): 2.85 nM
Kd (HLA-A*30:01): ≥ 24.4 µM
Kd (HLA-B*15:03): 4.85 nM

ISESRFQSL
Kd (HLA-A*32:01): 11100 nM
Kd (HLA-B*08:01): 39.6 nM
Kd (HLA-B*15:01 [4]): 2890 nM
Kd (HLA-A*30:01): 5.92 µM
Kd (HLA-B*15:03): 147 nM

VEYPIIGDEL
Kd (HLA-B*44:02; [8]): 4810 nM
Kd (HLA-B*18:01 [1]; [8]): 15.2 µM
Kd (HLA-B*45:01; [8]): 2.23 µM
Kd (HLA-B*40:02; [8]): 500 nM
Kd (HLA-B*44:03; [8]): 282 nM
Kd (HLA-B*40:01; [8]): 0.00504 µM

KMAVEVGSI
Kd (HLA-A*02:06): 119 nM
Kd (HLA-A*02:02): 30.8 nM
Kd (HLA-B*15:03): 335 nM
Kd (HLA-A*02:03): 2.78 nM

HMPAARPEL
Kd (HLA-B*48:01): 593 nM

ADSLDFTQV
Kd (HLA-B*44:02; [7]): 12600 nM
Kd (HLA-B*18:01 [1]; [7]): ≥ 66.5 µM
Kd (HLA-B*45:01; [7]): 6.12 µM
Kd (HLA-B*40:02; [7]): 5850 nM
Kd (HLA-B*44:03; [7]): ≥ 33300 nM
Kd (HLA-B*40:01; [7]): ≥ 64.9 µM
